According to PMC12578939:

Target: microtubules polymerised from bovine brain tubulin (bovine) (UniProt Q6B856)
Test: TIRF microscopy of binding to immobilised microtubules

augmin octamer lacking the N-terminal MTBR of Haus8 (residues 1-154) (from UniProt Q0IHJ3;Q6DCY9) (complex)
reduction in MT binding against wildtype augmin: 50%
